Results: patent publication US8398967B2, “Particle formulations for use in pharmaceutical compositions” (Intarcia Therapeutics, Inc., priority 2002, dated 2013)
Each block holds one compound with its values, some of them ahead of it.

Key:
Lipid moisture level = type: physicochemical; details: after vacuum at room temperature for 48 hours
Protocol: The moisture level of the lipid, e.g., DOPC, […], or DMPC, is measured after vacuum at room temperature for 48 hours. Lipid vehicles with lower moisture level can be included in viscous liquid compositions.

[1] = ω-Interferon solubility in non-aqueous liquid solvents; type: physicochemical
Description: Thirteen non-aqueous liquid solvent candidates were identified to develop a solution formulation or a suspension formulation based on solubility of ω-interferon. The solvents at the top, e.g., lauryl lactate, are potential suspension solvents. The character of the solvents changes to potential solution solvents in combination with ω-interferon, e.g., glycerol formal, benzyl benzoate, DMSO, or glycerin.

[2] = solvent 1:1 benzyl benzoate:benzyl alcohol, expected conc 10.00 mg/ml
[3] = solvent NMP, expected conc 25.00 mg/ml
[4] = solvent PEG 400, expected conc 25.00 mg/ml
[5] = solvent benzyl alcohol, expected conc 10.00 mg/ml
[6] = solvent ethanol, expected conc 25.00 mg/ml
[7] = solvent ethyl hexyl lactate, expected conc 10.00 mg/ml

Avg. Moisture (Lipid moisture level): 0.6 ± 0.2%
Compound: CCCCCCCC/C=C\CCCCCCCC(=O)OC[C@H](COP(=O)([O-])OCC[N+](C)(C)C)OC(=O)CCCCCCC/C=C\CCCCCCCC [DOPC, 1,2-Dioleoyl-sn-glycero-3-phosphatidylcholine]

Compound: ω-interferon
solubility ([1]; in the solvents that were combined with DOPC to form suspensions): less than 0.1 mg/mL
Concentration by SEC [1, 2]: 0 ng/mL
Concentration by UV [1, 2]: <100 µg/mL
Concentration by rp-HPLC [1, 2]: 0.00
Concentration by SEC [1, 3]: 0 ng/mL
Concentration by UV [1, 3]: <100 µg/mL
Concentration by rp-HPLC [1, 3]: 0.00
Concentration by SEC [1, 4]: 0 ng/mL
Concentration by UV [1, 4]: <100 µg/mL
Concentration by rp-HPLC [1, 4]: 0.00
Concentration by SEC [1, 5]: 0 ng/mL
Concentration by UV [1, 5]: 140 µg/mL
Concentration by rp-HPLC [1, 5]: 0.00
Concentration by SEC [1, 6]: 0 ng/mL
Concentration by UV [1, 6]: <100 µg/mL
Concentration by rp-HPLC [1, 6]: 0.00
Concentration by SEC [1, 7]: 0 ng/mL
Concentration by UV [1, 7]: 370 µg/mL
Concentration by rp-HPLC [1, 7]: 0.00
Concentration by UV ([1]; solvent lauryl alcohol, expected conc 10.00 mg/ml): <100 µg/mL
Concentration by UV ([1]; solvent lauryl lactate, expected conc 10.00 mg/ml): <100 µg/mL

Avg. Moisture (Lipid moisture level): 0.6%
Compound: CCCCCCCCCCCCCC(=O)OC[C@H](COP(=O)([O-])OCC[N+](C)(C)C)OC(=O)CCCCCCCCCCCCC [DMPC, dimyristoylphosphatidylcholine]
